Experimental data reported in the supplement of paper PMC9112550, “Optimization of the antimicrobial peptide Bac7 by deep mutational scanning” (BMC Biology, 2022).
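Further: peptides expressed intracellularly from a pBAD plasmid library in pooled LB shake-flask culture, induced with 0.3% L-arabinose, DNA abundance read by NGS, three biological replicates, DESeq2 with apeglm shrinkage.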

These sequences were tested on Escherichia coli TOP10 (assay: shrunken log2 fold change of peptide-encoding DNA abundance (4.5 h post-induction vs induction); higher = less antimicrobial activity (less host growth inhibition)). Details: time post-induction: 4.5 h; library: site-saturation at positions 5, 18, 19, 20.
With RRIRSRPPRLPRPRPRPWYWPRP the “shrunken log2 fold change” value was -0.307. RRIRSRPPRLPRPRPRPAELPRP was tested, and the “shrunken log2 fold change” value was 0.0682. For RRIRDRPPRLPRPRPRPLHRPRP, the “shrunken log2 fold change” value was -0.375. In the case of RRIRYRPPRLPRPRPRPNCLPRP, the “shrunken log2 fold change” value is reported as -0.942. In the case of RRIRDRPPRLPRPRPRPQQSPRP, the “shrunken log2 fold change” value is reported as 0.0846. For RRIRCRPPRLPRPRPRPYEKPRP, the “shrunken log2 fold change” value was -0.0213. With RRIRHRPPRLPRPRPRPAYDPRP the “shrunken log2 fold change” value was -0.265. With RRIRQRPPRLPRPRPRPETIPRP the “shrunken log2 fold change” value was -0.0395. For RRIRCRPPRLPRPRPRPIDVPRP, the “shrunken log2 fold change” value was -0.856. RRIRDRPPRLPRPRPRPGRDPRP was tested, and the “shrunken log2 fold change” value was 0.193. RRIRCRPPRLPRPRPRPMQFPRP was tested, and the “shrunken log2 fold change” value was -0.113. For RRIRGRPPRLPRPRPRPHQMPRP, the “shrunken log2 fold change” value was 0.532. With RRIRKRPPRLPRPRPRPNYRPRP the “shrunken log2 fold change” value was 0.123. For RRIRIRPPRLPRPRPRPLNEPRP, the “shrunken log2 fold change” value was -0.497. With RRIRDRPPRLPRPRPRPTKCPRP the “shrunken log2 fold change” value was -0.0929. RRIRHRPPRLPRPRPRPYHIPRP was tested, and the “shrunken log2 fold change” value was -0.045. RRIRWRPPRLPRPRPRPSEEPRP was tested, and the “shrunken log2 fold change” value was 0.129. RRIRERPPRLPRPRPRPWSWPRP was tested, and the “shrunken log2 fold change” value was 0.103. With RRIRPRPPRLPRPRPRPDCDPRP the “shrunken log2 fold change” value was 0.0888. With RRIRQRPPRLPRPRPRPHESPRP the “shrunken log2 fold change” value was -0.126. RRIRVRPPRLPRPRPRPHMPPRP was tested, and the “shrunken log2 fold change” value was -0.725. RRIRIRPPRLPRPRPRPNMQPRP was tested, and the “shrunken log2 fold change” value was -0.29. RRIRSRPPRLPRPRPRPDCIPRP was tested, and the “shrunken log2 fold change” value was -0.163. With RRIRCRPPRLPRPRPRPSPLPRP the “shrunken log2 fold change” value was 0.21. For RRIRVRPPRLPRPRPRPEFMPRP, the “shrunken log2 fold change” value was -0.0942. For RRIRLRPPRLPRPRPRPARGPRP, the “shrunken log2 fold change” value was 0.565. RRIRERPPRLPRPRPRPSNTPRP was tested, and the “shrunken log2 fold change” value was -0.942. In the case of RRIRSRPPRLPRPRPRPMEDPRP, the “shrunken log2 fold change” value is reported as 0.189. With RRIRDRPPRLPRPRPRPKINPRP the “shrunken log2 fold change” value was -0.389. With RRIRKRPPRLPRPRPRPFNIPRP the “shrunken log2 fold change” value was 0.186. RRIRIRPPRLPRPRPRPPHNPRP was tested, and the “shrunken log2 fold change” value was -0.521. In the case of RRIRHRPPRLPRPRPRPDMQPRP, the “shrunken log2 fold change” value is reported as -0.106. With RRIRGRPPRLPRPRPRPVLNPRP the “shrunken log2 fold change” value was 0.469. RRIRKRPPRLPRPRPRPVCPPRP was tested, and the “shrunken log2 fold change” value was 0.0175. For RRIRHRPPRLPRPRPRPKWNPRP, the “shrunken log2 fold change” value was -0.206. RRIRARPPRLPRPRPRPHELPRP was tested, and the “shrunken log2 fold change” value was 0.0601. With RRIRVRPPRLPRPRPRPQNDPRP the “shrunken log2 fold change” value was -0.292. RRIRFRPPRLPRPRPRPNFLPRP was tested, and the “shrunken log2 fold change” value was -0.277. In the case of RRIRRRPPRLPRPRPRPKQSPRP, the “shrunken log2 fold change” value is reported as 0.143. For RRIRTRPPRLPRPRPRPNGLPRP, the “shrunken log2 fold change” value was -0.00146. With RRIRYRPPRLPRPRPRPYNWPRP the “shrunken log2 fold change” value was -0.593. In the case of RRIRARPPRLPRPRPRPAPMPRP, the “shrunken log2 fold change” value is reported as 0.799. In the case of RRIRCRPPRLPRPRPRPEWFPRP, the “shrunken log2 fold change” value is reported as 0.000144. RRIRERPPRLPRPRPRPGKKPRP was tested, and the “shrunken log2 fold change” value was -0.0022. For RRIRGRPPRLPRPRPRPHFCPRP, the “shrunken log2 fold change” value was 0.117. With RRIRSRPPRLPRPRPRPAYRPRP the “shrunken log2 fold change” value was -0.154. RRIRERPPRLPRPRPRPDKRPRP was tested, and the “shrunken log2 fold change” value was -0.023. RRIRVRPPRLPRPRPRPAGDPRP was tested, and the “shrunken log2 fold change” value was 0.778. In the case of RRIRSRPPRLPRPRPRPDDVPRP, the “shrunken log2 fold change” value is reported as 0.14. With RRIRKRPPRLPRPRPRPCESPRP the “shrunken log2 fold change” value was -0.0138. For RRIRRRPPRLPRPRPRPNSIPRP, the “shrunken log2 fold change” value was -0.236. With RRIRFRPPRLPRPRPRPKQKPRP the “shrunken log2 fold change” value was -0.00156. In the case of RRIRHRPPRLPRPRPRPGVKPRP, the “shrunken log2 fold change” value is reported as -0.0148. For RRIRIRPPRLPRPRPRPWYFPRP, the “shrunken log2 fold change” value was -0.19. With RRIRCRPPRLPRPRPRPRIWPRP the “shrunken log2 fold change” value was 0.0951. For RRIRLRPPRLPRPRPRPDGNPRP, the “shrunken log2 fold change” value was -0.0479. With RRIRHRPPRLPRPRPRPNIHPRP the “shrunken log2 fold change” value was -0.364. In the case of RRIRERPPRLPRPRPRPRYRPRP, the “shrunken log2 fold change” value is reported as -0.198. For RRIRTRPPRLPRPRPRPASGPRP, the “shrunken log2 fold change” value was 0.614. For RRIRPRPPRLPRPRPRPWHIPRP, the “shrunken log2 fold change” value was -0.0921. For RRIRARPPRLPRPRPRPHNGPRP, the “shrunken log2 fold change” value was 0.0647. In the case of RRIRSRPPRLPRPRPRPIYNPRP, the “shrunken log2 fold change” value is reported as -0.785. With RRIRIRPPRLPRPRPRPSTSPRP the “shrunken log2 fold change” value was -0.492. In the case of RRIRNRPPRLPRPRPRPSKNPRP, the “shrunken log2 fold change” value is reported as -0.267. For RRIRQRPPRLPRPRPRPAYYPRP, the “shrunken log2 fold change” value was -0.514. RRIRSRPPRLPRPRPRPAMGPRP was tested, and the “shrunken log2 fold change” value was 0.313. In the case of RRIRSRPPRLPRPRPRPSDYPRP, the “shrunken log2 fold change” value is reported as -0.87. For RRIRDRPPRLPRPRPRPIGKPRP, the “shrunken log2 fold change” value was -0.153. For RRIRYRPPRLPRPRPRPEPMPRP, the “shrunken log2 fold change” value was -0.0988. In the case of RRIRFRPPRLPRPRPRPNIMPRP, the “shrunken log2 fold change” value is reported as -0.658. In the case of RRIRTRPPRLPRPRPRPCTQPRP, the “shrunken log2 fold change” value is reported as -0.123. RRIRGRPPRLPRPRPRPAYWPRP was tested, and the “shrunken log2 fold change” value was -0.0674. For RRIRMRPPRLPRPRPRPMYEPRP, the “shrunken log2 fold change” value was 0.221. With RRIRSRPPRLPRPRPRPNCQPRP the “shrunken log2 fold change” value was -0.0974. In the case of RRIRERPPRLPRPRPRPGCNPRP, the “shrunken log2 fold change” value is reported as -0.0442. For RRIRRRPPRLPRPRPRPIELPRP, the “shrunken log2 fold change” value was -0.192. With RRIRKRPPRLPRPRPRPVDNPRP the “shrunken log2 fold change” value was -0.0705. In the case of RRIRERPPRLPRPRPRPESGPRP, the “shrunken log2 fold change” value is reported as -0.0112. With RRIRLRPPRLPRPRPRPSDCPRP the “shrunken log2 fold change” value was -0.336. In the case of RRIRCRPPRLPRPRPRPATAPRP, the “shrunken log2 fold change” value is reported as 0.41. In the case of RRIRRRPPRLPRPRPRPKNNPRP, the “shrunken log2 fold change” value is reported as -0.0641. In the case of RRIRIRPPRLPRPRPRPPEGPRP, the “shrunken log2 fold change” value is reported as 0.115. In the case of RRIRGRPPRLPRPRPRPMQFPRP, the “shrunken log2 fold change” value is reported as 0.184. With RRIRQRPPRLPRPRPRPCEHPRP the “shrunken log2 fold change” value was 0.0413. With RRIRRRPPRLPRPRPRPEEMPRP the “shrunken log2 fold change” value was 1.38. In the case of RRIRARPPRLPRPRPRPLLAPRP, the “shrunken log2 fold change” value is reported as 0.949. With RRIRFRPPRLPRPRPRPKRHPRP the “shrunken log2 fold change” value was 0.134. For RRIRYRPPRLPRPRPRPFQEPRP, the “shrunken log2 fold change” value was -0.152. In the case of RRIRDRPPRLPRPRPRPKIHPRP, the “shrunken log2 fold change” value is reported as -0.214. For RRIRYRPPRLPRPRPRPPYYPRP, the “shrunken log2 fold change” value was -0.214. RRIRPRPPRLPRPRPRPWKTPRP was tested, and the “shrunken log2 fold change” value was -0.225. In the case of RRIRPRPPRLPRPRPRPYAFPRP, the “shrunken log2 fold change” value is reported as -0.264. With RRIRVRPPRLPRPRPRPRVHPRP the “shrunken log2 fold change” value was 1.62. RRIRPRPPRLPRPRPRPLLRPRP was tested, and the “shrunken log2 fold change” value was 1.73. With RRIRYRPPRLPRPRPRPPWLPRP the “shrunken log2 fold change” value was 1.46. RRIRNRPPRLPRPRPRPQSPPRP was tested, and the “shrunken log2 fold change” value was -0.0298. With RRIRGRPPRLPRPRPRPEYHPRP the “shrunken log2 fold change” value was 0.155. For RRIRIRPPRLPRPRPRPNWIPRP, the “shrunken log2 fold change” value was -0.565. For RRIRVRPPRLPRPRPRPVKWPRP, the “shrunken log2 fold change” value was -0.0595. For RRIRMRPPRLPRPRPRPYEIPRP, the “shrunken log2 fold change” value was 0.0237. In the case of RRIRSRPPRLPRPRPRPLYEPRP, the “shrunken log2 fold change” value is reported as -0.438. In the case of RRIRMRPPRLPRPRPRPPNLPRP, the “shrunken log2 fold change” value is reported as 0.0707. In the case of RRIRIRPPRLPRPRPRPIYLPRP, the “shrunken log2 fold change” value is reported as -0.811. For RRIRTRPPRLPRPRPRPEVMPRP, the “shrunken log2 fold change” value was 0.114. For RRIRCRPPRLPRPRPRPWSNPRP, the “shrunken log2 fold change” value was 0.00372. With RRIRSRPPRLPRPRPRPNKVPRP the “shrunken log2 fold change” value was -0.283. For RRIRWRPPRLPRPRPRPKSYPRP, the “shrunken log2 fold change” value was 0.0188. For RRIRMRPPRLPRPRPRPAMDPRP, the “shrunken log2 fold change” value was 1.27. For RRIRLRPPRLPRPRPRPYSSPRP, the “shrunken log2 fold change” value was -0.203. In the case of RRIRIRPPRLPRPRPRPFGNPRP, the “shrunken log2 fold change” value is reported as -0.118. With RRIRLRPPRLPRPRPRPEIMPRP the “shrunken log2 fold change” value was -0.00809. In the case of RRIRKRPPRLPRPRPRPRCHPRP, the “shrunken log2 fold change” value is reported as 0.237. For RRIRHRPPRLPRPRPRPWYKPRP, the “shrunken log2 fold change” value was -1.2. With RRIRGRPPRLPRPRPRPQIFPRP the “shrunken log2 fold change” value was -0.0563. For RRIRVRPPRLPRPRPRPQCHPRP, the “shrunken log2 fold change” value was -0.0451. With RRIRERPPRLPRPRPRPPNIPRP the “shrunken log2 fold change” value was -0.207. In the case of RRIRKRPPRLPRPRPRPLADPRP, the “shrunken log2 fold change” value is reported as 0.559. RRIRGRPPRLPRPRPRPHASPRP was tested, and the “shrunken log2 fold change” value was 0.585. In the case of RRIRYRPPRLPRPRPRPAPRPRP, the “shrunken log2 fold change” value is reported as 0.57. In the case of RRIRYRPPRLPRPRPRPISFPRP, the “shrunken log2 fold change” value is reported as -0.00256. In the case of RRIRERPPRLPRPRPRPSVIPRP, the “shrunken log2 fold change” value is reported as -0.259. RRIRGRPPRLPRPRPRPDDWPRP was tested, and the “shrunken log2 fold change” value was 1.5. For RRIRVRPPRLPRPRPRPYRNPRP, the “shrunken log2 fold change” value was -0.0374. With RRIRERPPRLPRPRPRPCVYPRP the “shrunken log2 fold change” value was -0.33. RRIRFRPPRLPRPRPRPVPPPRP was tested, and the “shrunken log2 fold change” value was 0.46.
